Data published in patent US20210069338A1.
Substitutions are numbered along the chain they refer to. Names and notes keep the numbering of the source. Values belong to the binder of their own block, whether it stands above or below them.

Assays:
[1] = target: Ac-PYY(PEG3-Cys-PEG2-5-Fluo) / Ac-IK(PEG3-Cys-PEG2-5-Fluo)-Pqa-…-MeArg-Y-NH2; experiment: mass spectrometry of the covalent disulfide conjugate, 2.5:1 peptide to antibody, no redox agents
[2] = target: helicar motif amino acid sequence cysteine variant 2, …(5-Fluo)-OH x TFA; experiment: covalent disulfide coupling, 2.5 molar excess of peptide
[3] = target: Ac-PYY(PEG3-Cys-4Abu-Dig) / Ac-IK(PEG3-Cys-4Abu-Dig)-Pqa-…-MeArg-Y-NH2; experiment: mass spectrometry of the covalent disulfide conjugate, 2:1 peptide to antibody, no redox agents
[4] = target: Ac-PYY(PEG3-Cys-4Abu-NH2) / Ac-IK(PEG3-Cys-4Abu-NH2)-Pqa-…-MeArg-Y-NH2; experiment: mass spectrometry, non-haptenylated peptide 2.1:1 to antibody
[5] = target: PEG3-PYY(PEG3-Cys-4Abu-Dig) / PEG3-IK(PEG3-Cys-4Abu-Dig)-Pqa-…-MeArg-Y-NH2; experiment: mass spectrometry of the covalent disulfide conjugate, 2:1 peptide to antibody, 1 mM GSH / 5 mM GSSG

% of detected species = antibody coupled to 1 peptide molecule [1]: 5%
% of detected species = antibody coupled to 2 peptide molecules [1]: 95%
B1: anti-fluorescein antibody VH52bC (antibody, V domains shown)
VH: GVKLDETGGGLVQPGGAMKLSCVTSGFTFGHYWMNWVRQSPEKGLEWVAQFRNCPYNYETYYSDSVKGRFTISRDDSKSSVYLQMNNLRVEDTGIYYCTGASYGMEYLGQGTSVTVSS
VL: DVVMTQTPLSLPVSLGDQASISCRSSQSLVHSNGNTYLRWYLQKPGQSPKVLIYKVSNRVSGVPDRFSGSGSGTDFTLKINRVEAEDLGVYFCSQSTHVPWTFGGGTKLEIK

% of detected species = antibody coupled to 2 peptide molecules [1]: 100%
B2: anti-fluorescein antibody VH28C (antibody, from a related filing, V domains shown, part only)
VH: B1 VH with T28C, C54K
VL: B1 VL

% of antibody covalently conjugated to one helicar motif amino acid sequence [2]: 40%
% of antibody covalently conjugated to two helicar motif amino acid sequences [2]: 43%
% of antibody not conjugated [2]: 17%
B3: anti-helicar motif amino acid sequence antibody (0155), light chain variable domain N55C variant (antibody, V domains shown)
V domain 1: QAVVTQEPSLTVSPGGTVTLTCGSSTGAVTTSNYASWVQQKPGQAFTGLIGGTNNRAPWTPARFSGSLLGGKAALTLSGAQPEDEAEYYCALWYSNHWVFGGGTKLTVL
V domain 2: DAVVTQESALTTSPGETVTLTCRSSTGAVTTSNYASWVQEKPDHLFTGLIGGTNCRAPGVPARFSGSLIGDKAALTITGAQTEDEAIYFCALWYSNHWVFGGGTKLTVL

% of detected species = antibody coupled to 1 peptide molecule [3]: 40%
% of detected species = antibody coupled to 2 peptide molecules [3]: 7.4%
% of detected species = uncoupled antibody [3]: 52%
% of detected species = antibody coupled to 1 peptide molecule [4]: 51%
% of detected species = antibody coupled to 2 peptide molecules [4]: 17%
% of detected species = uncoupled antibody [4]: 32%
% of detected species = antibody coupled to 1 peptide molecule [5]: 46%
% of detected species = antibody coupled to 2 peptide molecules [5]: 43%
% of detected species = uncoupled antibody [5]: 11%
B4: humanized anti-digoxigenin antibody VH52bC (antibody, from a related filing, V domains shown)
VH: QVQLVESGGGLVKPGGSLRLSCAASGFTFSDYAMSWIRQAPGKGLEWVSSINICATYIYYADSVKGRFTISRDNAKNSLYLQMNSLRAEDTAVYYCARPGSPYEYDKAYYSMAYWGQGTTVTVSS
VL: DIQMTQSPSSLSASVGDRVTITCRASQDIKNYLNWYQQKPGKAPKLLIYYSSTLLSGVPSRFSGSGSGTDFTLTISSLQPEDFATYYCQQSITLPPTFGCGTKVEIK

% of detected species = uncoupled antibody [4]: 100%
B5: humanized anti-digoxigenin antibody (antibody, from a related filing, V domains shown)
VH: B4 VH with C54G
VL: B4 VL with C100G
